Tests used:
[1] = target: T1, H-NS (purified recombinant) (Escherichia coli K12 MG1655?) (UniProt P0ACF8); assay: EMSA; conditions: 1 mM Mg2+, EMSA: 0.5 pmol DNA in 20 µl 5 mM Tris-HCl pH 8.0, 1 mM MgCl2, 50 mM NaCl, 0.01 mM EDTA, 0.01 mM DTT, 3.3 mM imidazole, 40 min at 30°C, 5% PAAG, lysate series …
T1 sequence: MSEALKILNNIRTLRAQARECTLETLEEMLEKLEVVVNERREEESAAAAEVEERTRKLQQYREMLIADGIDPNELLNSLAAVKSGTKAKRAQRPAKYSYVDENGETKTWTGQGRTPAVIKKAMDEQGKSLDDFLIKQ

[2] = target: T2, H-NS-His in cell lysate (Escherichia coli K12 MG1655?) (UniProt P0ACF8); assay: EMSA + anti-His Western; conditions: 0.01 mM EDTA, 0.01 mM DTT, 3.3 mM imidazole, 40 min at 30°C
T2 sequence: T1 sequence

[3] = n=6, EMSA: 0.5 pmol DNA in 20 µl 5 mM Tris-HCl pH 8.0, 1 mM MgCl2, 50 mM NaCl, 5% …, lysate series wi

Row | Sequence | binding signal (% of initial fragment) ([1]; n=6) | binding signal (% of initial fragment) [2, 3] | also measured
1 | AGATCTGCAAGTAAAAATGATACTCTTTATATTTAAATTCAAACGGTTGACATATATATAGCACGAGGTTTCATGTGCGTAGTAGTGAGTTTATGTTATTAAACAGCTTAGTATGCGTTGGAAAGTGAAGCTTTGTAATAAGTTAGAATAAGACGCGACATACATATAACAATTTAATCTTAAATGTAGTCTATTAGCATTTGCAAACAAACAATTTGCGTATATACTATAAATGCACATCATCCTGATTGTGATTGTGTATTTAACTGGTTCTTATATGACTACTACCAACTAGGTTTAGTCTTATGATAGGTGCAGGATGGATTATGTTTACTCCGTAGTTTCCATCTGTCTATCATTAGATTTAATTATGAACAGGAGAGTTATCCTGTTCAAAAAAAATTCATTGTTTATTGTAAGCGACAAATCTAGA (double strand) [appY promoter, activated mutant (positive selection cycle 9)] | 102 | 97.2 | 
2 | AGATCTTCCTCGGAGAAACACTGACACCCATACAGCTACTGGCGCTCGGCGCTATCATCGCCACTTCAATGGGGTCTACGCTGACAGTACGCAAAGAGAGCAAAATAAAAGAATTAGACATTAATTAAATTTACATTTCTGCATGGTTATGCATAACCATGCAGAATTTCTCGCTACTTTTCCTCTACACCGTCTTTATATATCGAATTATGCAAAAGCATATTTATTCCGAAAATTCCTGGCGAGCAGATAAATAAGAATTGTTCTTATCAATATATCTAACTCATTGAATCTTTATTAGTTTTGTTTTTCACGCTTGTTACCACTATTAGTGTGATAGGAACAGCCAGAATTGCGGAACACATAGCCGGTGCTATACTTAGTCTCGTTAATTACTGGGACATAACATCTAGA (double strand) [dps promoter, up-regulated mutant (positive selection)] | 100 |  | binding signal (% of initial fragment) ([2]; p=0.537, n=6, EMSA: 0.5 pmol DNA in 20 µl 5 mM Tris-HCl pH 8.0, 1 mM MgCl2, 50 mM NaCl, 5% PAAG, lysate series …): 129
3 | AGATCTGCAAGTAAAAATGATACTCTTTTTATATTAAATTCAAACGGTTGACATATATATAGCAAGAGGTTTCAGGTGCGTTGTAGCGAGTTTATGTTTATAAAAAGCATAGTAAGCGTTGAAAAATGTAACTTTGAAATAAGTTAGAATAAAAAACAACATACATATATTAATTTAATCCTAAATGAAATTTATTAAAATCTGCAAACTATAATTTTGTGTATAAAAATATAAATGCACATCATCCTGATTATGATTGTGTATTTAATTGGTTGTTATTTGACTACTATCAACTTGTTTTAATTTTATGATAGGTGCAAGGTGGATTATGTTTGATCCGTAGTTTTCATCTGTCAATCATTTGATTTAATTATAAACAGGAGAGTTATCTCGTTCAAAAAAATTCATTGTTTATTGTAAGCGACAAATCTAGA (double strand) |  |  | binding signal (% of initial fragment) ([1]; p=0.78, n=6): 110; binding signal (% of initial fragment) ([2]; p=0.15, n=6, EMSA: 0.5 pmol DNA in 20 µl 5 mM Tris-HCl pH 8.0, 1 mM MgCl2, 50 mM NaCl, 5% PAAG, lysate series …): 117
4 | AGATCTTCCTCGGAGAAACACTGACACCCATACAGCTACTGGCGCTCGGCGCTATCATCGCCGCTTCAATGGGGTCTACGCAGACAGTACGCAAAGAGAGCAAAATAAAAGAATTAGACATTAATTAAATTTACATTTCTGCATGGTTATGCATAACCTTGCAGAATTTCTCGCTACTTTTCCCCTACACCGTCTTTATATATCGAATTATGCAAAAGCATATTTATTCCGAAAATTCCTGGCGAGCAGATAAATAAGAATTGTTCTTATCAATATATCTAACTCATTGAATCTTTATTAGTTGTGTTTTTCACGCTTGTTACCACTATTAGTGTGATAGGAACAGCCAGAATAGCGGAACACATAGCCGGTGCTATACATAGTCTCGTTAATTACTGGGACATAACATCTAGA (double strand) [dps promoter, down-regulated mutant (negative selection)] |  | 113 | binding signal (% of initial fragment) ([1]; n=6, not significant): 117
